Assay results from patent publication US20220259315A1 (MABQUEST, published 2022).
Substitutions are numbered along the chain they refer to. Like-named read-outs stand apart in the source and are kept apart here. One block for each binder: values may come before it.

What was measured:
[1] = target: T1, recombinant human Fc-PD-1 protein (human, UniProt Q15116 25-170); test: Biacore, Fab, human Fc-PD-1
T1 construct: may be the same protein as the PD-1 Fc fusion of the Luminex assays; also called recombinant human PD-1 in an Fc fusion construct; not shown: Fc part not described

[2] = target: T2, monkey Fc-PD-1 protein (monkey, UniProt Q15116 25-170 (human entry)); test: Biacore, Fab, monkey Fc-PD-1
T2 construct: not shown: Fc part not described
T2 chain: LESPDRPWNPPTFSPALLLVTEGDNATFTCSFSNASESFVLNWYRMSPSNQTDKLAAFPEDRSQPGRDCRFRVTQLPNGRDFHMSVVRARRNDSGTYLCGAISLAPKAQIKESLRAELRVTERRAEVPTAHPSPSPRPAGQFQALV

[3] = target: T3, PD-1 M14; test: flow cytometry, HeLa cells transiently transfected with PD-1 M14, PE-labeled anti-mouse IgG secondary Ab
T3 PD-1 mutant: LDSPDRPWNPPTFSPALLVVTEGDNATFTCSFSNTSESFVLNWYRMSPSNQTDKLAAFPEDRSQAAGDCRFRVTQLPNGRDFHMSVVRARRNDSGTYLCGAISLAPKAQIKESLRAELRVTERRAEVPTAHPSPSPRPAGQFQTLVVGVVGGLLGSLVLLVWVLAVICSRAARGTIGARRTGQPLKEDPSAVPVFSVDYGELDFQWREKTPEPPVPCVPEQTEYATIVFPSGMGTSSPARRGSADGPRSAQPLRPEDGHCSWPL

[4] = target: T2, monkey Fc-PD-1 protein; test: Biacore, monkey Fc-PD-1
[5] = target: T1, recombinant human Fc-PD-1 protein; test: Biacore, Fab, human Fc-PD-1; remark: listed apart in the source
[6] = target: T2, monkey Fc-PD-1 protein; test: Biacore, Fab, monkey Fc-PD-1

T1 sequence (Q15116 25-170): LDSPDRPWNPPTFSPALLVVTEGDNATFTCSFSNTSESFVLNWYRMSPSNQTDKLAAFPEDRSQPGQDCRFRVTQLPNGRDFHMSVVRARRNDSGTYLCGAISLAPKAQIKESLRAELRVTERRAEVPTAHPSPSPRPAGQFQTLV

B1: A35796 (Fab, V domains shown)
VH: QMQLVQSGPEVKKPGTSVKVSCKASGFTFTNYWIGWVRQAPGQALEWMGDIYPGGGYTNYNEKFKGRVTITADKSTSTAYMELSSLRSEDTAVYYCARGYDFVLDRWGQGTTVTVSS
VL: DVVMTQSPAFLSVTPGEKVTITCKSSQSLFNSETQKNYLAWYQQKPGQPPKLLIYWASTRESGVPSRFSGSGSGTDFTLTISSLQPEDFATYYCKQSYTLRTFGGGTKLEIK
notes: humanized Fab clone of 137F2; also called humanized antibody A35796
Kd [1]: 1.18 nM
koff [1]: 0.000123 s⁻¹
kon [1]: 104000 M⁻¹ s⁻¹
Kd [2]: 1.03 nM
koff [2]: 9.81e-05 s⁻¹
kon [2]: 95300 M⁻¹ s⁻¹

B3: A35795 (Fab, V domains shown)
VH: B1 VH with M2V, P9A, T16A, F27Y, A44G
VL: B1 VL with P49A, K51R
notes: humanized Fab clone of 137F2; also called humanized antibody A35795
Kd [1]: 0.797 nM
koff [1]: 8.24e-05 s⁻¹
kon [1]: 103000 M⁻¹ s⁻¹
Kd [2]: 1.64 nM
koff [2]: 0.000152 s⁻¹
kon [2]: 92500 M⁻¹ s⁻¹

B7: A35793 (Fab, V domains shown)
VH: B1 VH
VL: B1 VL with L79F, Q85E, P86A, F89A
notes: humanized Fab clone of 137F2; also called humanized antibody A35793
Kd [1]: 0.912 nM
koff [1]: 9.49e-05 s⁻¹
kon [1]: 104000 M⁻¹ s⁻¹
Kd [2]: 1.13 nM
koff [2]: 0.000105 s⁻¹
kon [2]: 93200 M⁻¹ s⁻¹

B9: A35775 (Fab, V domains shown)
VH: EVQLVQSGAEVKKPGESLKISCKGSGYSFTNFYIHWVRQAPGQRLEWMGSIYPNYGDTAYNQKFKDRFVFSLDTSVSTAYLQISSLKAEDTAVYYCARGYSYAMDYWGQGTTVTVSS
VL: DIQMTQSPSSVSASVGDRVTITCSASQGISGDLNWYQQKPGQAPRLLIYHTSSLHSGVPSRFSGSGSGTDFTLTISSLQPEDFATYYCQYYSKDLLTFGGGTKLEIK
notes: humanized Fab clone of 135C12; also called humanized antibody A35775
Kd [5]: 2.54 nM
koff [5]: 0.000203 s⁻¹
kon [5]: 80200 M⁻¹ s⁻¹
Kd [6]: 5.73 nM
koff [6]: 0.000347 s⁻¹
kon [6]: 60500 M⁻¹ s⁻¹

B10: A35774 (Fab, V domains shown)
VH: B9 VH
VL: B9 VL with Q42K, R45K
notes: humanized Fab clone of 135C12; also called humanized antibody A35774
Kd [5]: 2.61 nM
koff [5]: 0.000211 s⁻¹
kon [5]: 80900 M⁻¹ s⁻¹
Kd [6]: 2.79 nM
koff [6]: 0.000194 s⁻¹
kon [6]: 69300 M⁻¹ s⁻¹

B11: A36443 (Fab, V domains shown)
VH: EVQLVQSGAEVKKPGATVKISCKVSGYTFTNFYIHWVRQARGQRLEWIGSIYPNYGDTAYNQKFKDRVTITADKSTSTAYMELSSLRSEDTAVYYCARGYSYAMDYWGQGTTVTVSS
VL: B9 VL with D70E, S77R, Q79E, T85V
notes: humanized Fab clone of 135C12; also called humanized antibody A36443
Kd [5]: 3.02 nM
koff [5]: 0.000215 s⁻¹
kon [5]: 71200 M⁻¹ s⁻¹
Kd [6]: 6.16 nM
koff [6]: 0.000585 s⁻¹
kon [6]: 94900 M⁻¹ s⁻¹

B12: A35789 (Fab, V domains shown)
VH: B11 VH with A16E, T17S, V18L, V24G, T28S, A40M, R41P, Q43K, R44G, I48M
VL: B9 VL with V58I, S60A, S77R, Q79E, T85V
notes: humanized Fab clone of 135C12; also called humanized antibody A35789
Kd [5]: 4.17 nM
koff [5]: 0.000293 s⁻¹
kon [5]: 70100 M⁻¹ s⁻¹
Kd [6]: 6.19 nM
koff [6]: 0.000413 s⁻¹
kon [6]: 66700 M⁻¹ s⁻¹

B13: A35777 (Fab, V domains shown)
VH: B11 VH with R41P, Q43K, R44G, I48M
VL: B9 VL with S10T, V11L
notes: humanized Fab clone of 135C12; also called humanized antibody A35777
Kd [5]: 5.13 nM
koff [5]: 0.000352 s⁻¹
kon [5]: 68600 M⁻¹ s⁻¹
Kd [6]: 5 nM
koff [6]: 0.000575 s⁻¹
kon [6]: 115000 M⁻¹ s⁻¹

B14: A35783 (Fab, V domains shown)
VH: B9 VH with P41R, M48I
VL: B9 VL with V11L, Q42K, A43T, R45K
notes: humanized Fab clone of 135C12; also called humanized antibody A35783
Kd [5]: 2.55 nM
koff [5]: 0.000196 s⁻¹
kon [5]: 76800 M⁻¹ s⁻¹
Kd [6]: 1.9 nM
koff [6]: 0.0008 s⁻¹
kon [6]: 421000 M⁻¹ s⁻¹

Results, then the binder that gave them:

Kd [1]: 0.802 nM
koff [1]: 8.02e-05 s⁻¹
kon [1]: 100000 M⁻¹ s⁻¹
Kd [2]: 1.13 nM
koff [2]: 0.000106 s⁻¹
kon [2]: 93700 M⁻¹ s⁻¹
B2: A35797 (Fab, V domains shown)
VH: EVQLVQSGAEVKKHGESLKISCKGSGYSFTNYWIGWVRQATGQGLEWMGDIYPGGGYTNYNEKFKGRVTITADKSTSTAYMELSSLRSEDTAVYYCARGYDFVLDRWGQGTTVTVSS
VL: B1 VL with V2I, V3Q, A9S, F10S, V13A, T14S, P15V, E17D, K18R
notes: humanized Fab clone of 137F2; also called humanized antibody A35797

Kd [1]: 0.734 nM
koff [1]: 7.43e-05 s⁻¹
kon [1]: 101000 M⁻¹ s⁻¹
Kd [2]: 1.88 nM
koff [2]: 0.000169 s⁻¹
kon [2]: 89700 M⁻¹ s⁻¹
B4: A35799 (Fab, V domains shown)
VH: B1 VH with P9A, P14T, T16S, F27Y, A40M, Q43K, A44G
VL: B1 VL
notes: humanized Fab clone of 137F2; also called humanized antibody A35799

Kd [1]: 0.937 nM
koff [1]: 8.78e-05 s⁻¹
kon [1]: 93700 M⁻¹ s⁻¹
Kd [2]: 1.08 nM
koff [2]: 9.49e-05 s⁻¹
kon [2]: 88200 M⁻¹ s⁻¹
B5: A35805 (Fab, V domains shown)
VH: B1 VH with M2V, P9S, V11L, T16A, F27Y, Q43K, A44G
VL: B1 VL with L79F, Q85E, P86A, F89A
notes: humanized Fab clone of 137F2; also called humanized antibody A35805

Kd [1]: 1.06 nM
koff [1]: 0.000104 s⁻¹
kon [1]: 98800 M⁻¹ s⁻¹
Kd [2]: 1.27 nM
koff [2]: 0.000116 s⁻¹
kon [2]: 91400 M⁻¹ s⁻¹
B6: A35818 (Fab, V domains shown)
VH: B1 VH
VL: B1 VL with P49A, K51R, L79F, Q85E, P86A, F89A
notes: humanized Fab clone of 137F2; also called humanized antibody A35818

binding result [3]: binds
Kd [4]: 2.22 nM
koff [4]: 0.000305 s⁻¹
kon [4]: 138000 M⁻¹ s⁻¹
B8: 137F2 (antibody, V domains shown)
VH: QVQLQQPGAELVRPGTSVKMSCKAAGYTFTNYWIGWIKQRPGHGLEWIGDIYPGGGYTNYNEKFKGKATLTADTSSSTAYMQVSSLTSEDTGIYYCARGYDFVLDRWGQGTSVTVSS
VL: DIVMSQSPSSLAVSTGEKVTMTCKSSQSLFNSETQKNYLAWYQQKPGQPPKLLIFWASTRESGVPDRFLGSGSGTDFTLTISSVQAEDLAVYYCKQSYTLRTFGGGTKLEIK
notes: also called mouse 137F2A11

Kd [5]: 4.31 nM
koff [5]: 0.000386 s⁻¹
kon [5]: 89600 M⁻¹ s⁻¹
B15: A36448 (Fab, V domains shown)
VH: B9 VH with A40M, Q43K, R44G
VL: B9 VL with S10T, V11L, Q42K, A43T, R45K
notes: humanized Fab clone of 135C12; also called humanized antibody A36448

Kd [5]: 4.46 nM
koff [5]: 0.000317 s⁻¹
kon [5]: 71000 M⁻¹ s⁻¹
Kd [6]: 6.07 nM
koff [6]: 0.000368 s⁻¹
kon [6]: 60700 M⁻¹ s⁻¹
B16: A36437 (Fab, V domains shown)
VH: B9 VH with A40M, Q43K, R44G
VL: B9 VL with S10T, V11L, V58I, S60A, T85V
notes: humanized Fab clone of 135C12; also called humanized antibody A36437
